Data from paper PMC7913696.

Legend:
PrimPol WT (human) [1] = molecular target: T1, PrimPol WT (human) (UniProt Q96LW4)
T1 sequence: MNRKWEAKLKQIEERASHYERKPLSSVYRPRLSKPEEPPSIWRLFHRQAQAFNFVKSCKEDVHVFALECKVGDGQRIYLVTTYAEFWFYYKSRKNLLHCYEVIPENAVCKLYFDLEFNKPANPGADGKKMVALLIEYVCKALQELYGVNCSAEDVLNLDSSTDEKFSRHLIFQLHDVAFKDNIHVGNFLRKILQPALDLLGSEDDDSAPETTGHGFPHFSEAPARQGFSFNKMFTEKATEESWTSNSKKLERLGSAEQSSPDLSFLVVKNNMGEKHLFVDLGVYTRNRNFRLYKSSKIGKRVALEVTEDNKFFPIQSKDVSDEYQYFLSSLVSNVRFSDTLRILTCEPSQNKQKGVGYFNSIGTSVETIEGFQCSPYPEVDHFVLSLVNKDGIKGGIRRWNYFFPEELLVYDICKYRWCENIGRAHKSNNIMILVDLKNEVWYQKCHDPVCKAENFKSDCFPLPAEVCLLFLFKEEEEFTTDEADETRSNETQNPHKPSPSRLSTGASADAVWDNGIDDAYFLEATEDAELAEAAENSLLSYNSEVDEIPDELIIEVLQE

PrimPol WT (human) [2] = molecular target: T1, PrimPol WT (human); remark: listed apart in the source

**Q.** “full-length (FL) human PolDIP2 tagged with C-terminal hexa-histidine (from UniProt Q9Y2S7 52-368) (natural protein)” was tested. Which filter binding of [α-32P]dCTP (1 μM dCTP, 300 nM primer/template, 600 nM PrimPol and 600 nM FL-PolDIP2, Ca2+, 37°C), against PrimPol alone (PrimPol WT (human) [1]) did it give?
**A.** The filter binding of [α-32P]dCTP (1 μM dCTP, 300 nM primer/template, 600 nM PrimPol and 600 nM FL-PolDIP2, Ca2+, 37°C), against PrimPol alone was 3 fold.

**Q.** What about the primer extension by 150 nM PrimPol on a 25/70-mer primer/template with increasing FL-PolDIP2 (up to 500 nM): percent of DNA substrate extended >3 nt (PrimPol WT (human) [2]) of the same molecule?
**A.** The primer extension by 150 nM PrimPol on a 25/70-mer primer/template with increasing FL-PolDIP2 (up to 500 nM): percent of DNA substrate extended >3 nt was 46%.

B1: T3-PolDIP2 (AA 217–368), C-terminal fragment with the ApaG-like domain (domain or fragment)
chain: LRAWQEKNHPWLELSDVHRETTENIRVTVIPFYMGMREAQNSHVYWWRYCIRLENLDSDVVQLRERHWRIFSLSGTLETVRGRGVVGREPVLSKEQPAFQYSSHVSLQASSGHMWGTFRFERPDGSHFDVRIPPFSLESNKDEKTPPSGLHW
**Q.** How did the primer extension by 150 nM PrimPol on a 25/70-mer primer/template with increasing T3-PolDIP2 (from 150 nM): percent of DNA substrate extended >3 nt (PrimPol WT (human) [2]) turn out when B1 was run?
**A.** The primer extension by 150 nM PrimPol on a 25/70-mer primer/template with increasing T3-PolDIP2 (from 150 nM): percent of DNA substrate extended >3 nt was 32%.
